Reference: patent publication US10501552B2, “Multivalent molecules comprising DR5-binding domains” (MacroGenics, Inc., priority 2015, dated 2019)

Tests used:
22RV1 = test: MTS cell proliferation assay; format: cell-based; settings: 22RV1 (Prostate); 1 μg/ml, ±10 μg/ml αmFc; two days
Procedure: (§1) Cell lines obtained from ATCC were cultured under standard tissue culture conditions. Each cell line was plated at ˜2×10^4 cells/well (in 96-well plates), and incubated overnight in F12/DMEM media supplemented with 10% FBS. […] Cell viability was determined using Promega CellTiter 96® AQeous Non-Radioactive Cell Proliferation Assay (Cat # G5430) essentially as described in the manufacturer's instructions to assay the amount of soluble formazan produced by cellular reduction of the MTS, which is a measure of the number of viable cells in the culture. Briefly, MTS/PMS regent was added to the wells and the absorbance at 490 nm (referenced at […]) was read in a Molecular Devices ThermoMax microplate reader.
(§2) Similar studies were performed over a range of anti-DR5 mAb concentrations from ˜10^−3 nM to ˜10^2 nM. The data for COLO205 cells is provided in FIG. 13, and are representative of cell lines sensitive to the antibodies of the invention.
(§3) The cytotoxicity of tetravalent DR5-Binding Molecules of the present invention was investigated. […] His-tagged TRAIL (R&D systems) was used as a positive control.
(§4) Similar studies were performed over a range of anti-DR5 mAb concentrations from ˜10^−3 nM to ˜10^2 nM.

786O = test: MTS cell proliferation assay; format: cell-based; settings: 786O (Kidney); 1 μg/ml, ±10 μg/ml αmFc; two days
Procedure: as §1, §2, §3, §4

A498 = test: MTS cell proliferation assay; format: cell-based; settings: A498 (Kidney); 1 μg/ml, ±10 μg/ml αmFc; two days
Procedure: as §1, §2, §3, §4

AsPC1 [1] = test: MTS cell proliferation assay; format: cell-based; settings: AsPC1 (Pancreas); 1 μg/ml, ±10 μg/ml αmFc; two days
Procedure: as §1, §2, §3, §4

BT474 = test: MTS cell proliferation assay; format: cell-based; settings: BT474 (Breast); 1 μg/ml, ±10 μg/ml αmFc; two days
Procedure: as §1, §2, §3, §4

CaKi2 = test: MTS cell proliferation assay; format: cell-based; settings: CaKi2 (Kidney); 1 μg/ml, ±10 μg/ml αmFc; two days
Procedure: as §1, §2, §3, §4

Calu3 = test: MTS cell proliferation assay; format: cell-based; settings: Calu3 (Lung); 1 μg/ml, ±10 μg/ml αmFc; two days
Procedure: as §1, §2, §3, §4

ES2 [2] = test: MTS cell proliferation assay; format: cell-based; settings: ES2 (Ovary); 1 μg/ml, ±10 μg/ml αmFc; two days
Procedure: as §1, §2, §3, §4

HPAFII = test: MTS cell proliferation assay; format: cell-based; settings: HPAFII (Pancreas); 1 μg/ml, ±10 μg/ml αmFc; two days
Procedure: as §1, §2, §3, §4

HT29 = test: MTS cell proliferation assay; format: cell-based; settings: HT29 (Colon); 1 μg/ml, ±10 μg/ml αmFc; two days
Procedure: as §1, §2, §3, §4

Hs700T = test: MTS cell proliferation assay; format: cell-based; settings: Hs700T (Pancreas); 1 μg/ml, ±10 μg/ml αmFc; two days
Procedure: as §1, §2, §3, §4

Hs746T = test: MTS cell proliferation assay; format: cell-based; settings: Hs746T (Stomach); 1 μg/ml, ±10 μg/ml αmFc; two days
Procedure: as §1, §2, §3, §4

MCF7 = test: MTS cell proliferation assay; format: cell-based; settings: MCF7 (Breast); 1 μg/ml, ±10 μg/ml αmFc; two days
Procedure: as §1, §2, §3, §4

MDA-MB-175VII = test: MTS cell proliferation assay; format: cell-based; settings: MDA-MB-175VII (Breast); 1 μg/ml, ±10 μg/ml αmFc; two days
Procedure: as §1, §2, §3, §4

MDA-MB-231 = test: MTS cell proliferation assay; format: cell-based; settings: MDA-MB-231 (Breast); 1 μg/ml, ±10 μg/ml αmFc; two days
Procedure: as §1, §2, §3, §4

MDA-MB-361 [3] = test: MTS cell proliferation assay; format: cell-based; settings: MDA-MB-361 (Breast); 1 μg/ml, ±10 μg/ml αmFc; two days
Procedure: as §1, §2, §3, §4

NCI-N87 = test: MTS cell proliferation assay; format: cell-based; settings: NCI-N87 (Stomach); 1 μg/ml, ±10 μg/ml αmFc; two days
Procedure: as §1, §2, §3, §4

PC3 = test: MTS cell proliferation assay; format: cell-based; settings: PC3 (Prostate); 1 μg/ml, ±10 μg/ml αmFc; two days
Procedure: as §1, §2, §3, §4

SKOV3 [4] = test: MTS cell proliferation assay; format: cell-based; settings: SKOV3 (Ovary); 1 μg/ml, ±10 μg/ml αmFc; two days
Procedure: as §1, §2, §3, §4

SW48 = test: MTS cell proliferation assay; format: cell-based; settings: SW48 (Colon); 1 μg/ml, ±10 μg/ml αmFc; two days
Procedure: as §1, §2, §3, §4

SW948 = test: MTS cell proliferation assay; format: cell-based; settings: SW948 (Colon); 1 μg/ml, ±10 μg/ml αmFc; two days
Procedure: as §1, §2, §3, §4

A549 = test: MTS cell proliferation assay; format: cell-based, human; settings: A549 (Lung); 1 μg/ml, ±10 μg/ml αmFc; two days
Procedure: as §1, §2, §3, §4

SKBR3 = test: MTS cell proliferation assay; format: cell-based, human; settings: SKBR3 (Breast); 1 μg/ml, ±10 μg/ml αmFc; two days
Procedure: as §1, §2, §3, §4

SKMES = test: MTS cell proliferation assay; format: cell-based, human; settings: SKMES (Lung); 1 μg/ml, ±10 μg/ml αmFc; two days
Procedure: as §1, §2, §3, §4

MDA-MB-361 [5] = test: […]-GLO cell viability assay with vorinostat; format: cell-based; settings: MDA-MB-361 (Breast); 1 μg/ml + 10 μM Vorinostat
ES2 [6] = test: […]-GLO cell viability assay with vorinostat; format: cell-based; settings: ES2 (Ovary); 1 μg/ml + 10 μM Vorinostat
DU145 = test: […]-GLO cell viability assay with vorinostat; format: cell-based, human; settings: DU145 (Prostate); 1 μg/ml + 10 μM Vorinostat
AsPC1 [7] = test: […]-GLO cell viability assay with vorinostat; format: cell-based; settings: AsPC1 (Pancreas); 1 μg/ml + 1 μM Vorinostat
SKOV3 [8] = test: […]-GLO cell viability assay with vorinostat; format: cell-based; settings: SKOV3 (Ovary); 1 μg/ml + 1 μM Vorinostat

B1: DR5 mAb 2: murine anti-human DR5 monoclonal antibody; VL SEQ ID NO:13, VH SEQ ID NO:18 (antibody, listed as Mus musculus, V domains shown)
VH: KVQLQQSGAELVKPGASVKLSCKASGYTFTEYILHWVKQKSGQGLEWIGWFYPGNNNIKYNEKFKDKATLTADKSSSTVYMELSRLTSEDSAVYFCARHEQGPGYFDYWGQGTTLTVSS
VL: DIVMTQSHKFMSTSVGDRVSITCKASQDVNTAVAWYQQKPGQSPKLLIYWASTRHTGVPDRFTGSGSGTDYTLTIKSVQAEDLTLYYCQQHYITPWTFGGGTKLEIK
modifications: (1)..(119) Anti-DR5 Antibody mAb 2 Heavy Chain Variable Region; (1)..(107) Anti-DR5 Antibody mAb 2 Light Chain Variable Region
% Inhibition (Average) (22RV1): 3.89% | % Inhibition (Average) (786O): 1.79% | % Inhibition (Average) (A498): 1.92% | % Inhibition (Average) (AsPC1 [1]): 0.13% | % Inhibition (Average) (BT474): 2.84% | % Inhibition (Average) (CaKi2): 2.64% | % Inhibition (Average) (Calu3): 2.06% | % Inhibition (Average) (ES2 [2]): 1.88% | % Inhibition (Average) (HPAFII): 2.68% | % Inhibition (Average) (HT29): 0.87% | % Inhibition (Average) (Hs700T): 0.99% | % Inhibition (Average) (Hs746T): 1.25% | % Inhibition (Average) (MCF7): 3.98% | % Inhibition (Average) (MDA-MB-175VII): 1.09% | % Inhibition (Average) (MDA-MB-231): 4.47% | % Inhibition (Average) (MDA-MB-361 [3]): 1.98% | % Inhibition (Average) (NCI-N87): 0.67% | % Inhibition (Average) (PC3): 2.19% | % Inhibition (Average) (SKOV3 [4]): 2.02% | % Inhibition (Average) (SW48): 2.44% | % Inhibition (Average) (SW948): 1.76% | % Inhibition (Average) (A549): 4.25% | % Inhibition (Average) (SKBR3): 2.55% | % Inhibition (Average) (SKMES): 1.28% | Net Gain (Average % Growth Inhibition) (MDA-MB-361 [5]): 5.11% | Net Gain (Average % Growth Inhibition) (ES2 [6]): 4.17% | Net Gain (Average % Growth Inhibition) (DU145): 4.18% | Net Gain (Average % Growth Inhibition) (AsPC1 [7]): 5.11% | Net Gain (Average % Growth Inhibition) (SKOV3 [8]): 1.75%

B2: DR5 mAb 1: anti-human DR5 monoclonal antibody; VL SEQ ID NO:3, VH SEQ ID NO:8 (antibody, listed as Mus musculus, V domains shown)
VH: EVKFLESGGGLVQPGGSLKLSCVASGFDFSRYWMSWVRQAPGKGLEWIGEINPDSNTINYTPSLKDKFIISRDNAKNTLYLQMTKVRSEDTALYYCTRRAYYGNPAWFAYWGQGTLVTVSS
VL: DIVLTQSPASLAVSLGQRATISCRASKSVSSSGYSYMHWYQQKPGQPPKVLIFLSSNLDSGVPARFSGSGSGTDFTLNIHPVEDGDAATYYCQHSRDLPPTFGGGTKLEIK
modifications: (1)..(121) Anti-DR5 Antibody mAb 1 Heavy Chain Variable Region; (1)..(111) Anti-DR5 Antibody mAb 1 Light Chain Variable Region
% Inhibition (Average) (22RV1): 3.03% | % Inhibition (Average) (786O): 0.91% | % Inhibition (Average) (A498): 0.89% | % Inhibition (Average) (AsPC1 [1]): 1.73% | % Inhibition (Average) (BT474): 2.26% | % Inhibition (Average) (CaKi2): 0.55% | % Inhibition (Average) (Calu3): 2.86% | % Inhibition (Average) (ES2 [2]): 3.31% | % Inhibition (Average) (HPAFII): 2.86% | % Inhibition (Average) (HT29): 0.68% | % Inhibition (Average) (Hs700T): 1.21% | % Inhibition (Average) (Hs746T): 2.83% | % Inhibition (Average) (MCF7): 2.47% | % Inhibition (Average) (MDA-MB-175VII): 1.6% | % Inhibition (Average) (MDA-MB-231): 1.79% | % Inhibition (Average) (MDA-MB-361 [3]): 1.54% | % Inhibition (Average) (NCI-N87): 1.6% | % Inhibition (Average) (PC3): 2.79% | % Inhibition (Average) (SKOV3 [4]): 3.16% | % Inhibition (Average) (SW48): 2.65% | % Inhibition (Average) (SW948): 3.53% | % Inhibition (Average) (A549): 2.79% | % Inhibition (Average) (SKBR3): 1.97% | % Inhibition (Average) (SKMES): 1.75% | Net Gain (Average % Growth Inhibition) (MDA-MB-361 [5]): 5.11% | Net Gain (Average % Growth Inhibition) (ES2 [6]): 4.17% | Net Gain (Average % Growth Inhibition) (DU145): 4.18% | Net Gain (Average % Growth Inhibition) (AsPC1 [7]): 5.11% | Net Gain (Average % Growth Inhibition) (SKOV3 [8]): 1.75%
